Data from publication PMC9492657, “Metabolic pathway assembly using docking domains from type I cis-AT polyketide synthases” (Nature Communications, 2022).

Experiments:
[1] = target: D3 NDD-His-tag (N-terminal docking domain of DEBS2, 6-deoxyerythronolide B synthase) (UniProt Q03132); assay: BLI; GatorPrime; NDD-His-tag (100 ug/mL in PBS) immobilised on a Ni-NTA biosensor; CDD in solution at variable concentrations in 1x kinetic buffer (PBS pH 7.4, 0.1% BSA, 0.05% Tween 20); 1:1 global model; three repeats
[2] = target: D5 NDD-His-tag, biotinylated (N-terminal docking domain of DEBS3, 6-deoxyerythronolide B synthase) (UniProt Q03133); assay: BLI; Octet RED96E; biotinylated D5 NDD (100 ug/mL in PBS) immobilised on a streptavidin (SA) biosensor; CDD in solution at variable concentrations in 1x kinetic buffer (PBS pH 7.4, 0.1% BSA, 0.05% Tween 20); 1:1 global model; three repeats
[3] = target: T1, R5 NDD-His-tag (N-terminal docking domain of RapB, rapamycin polyketide synthase) (Streptomyces rapamycinicus); assay: BLI; GatorPrime; NDD-His-tag (100 ug/mL in PBS) immobilised on a Ni-NTA biosensor; CDD in solution at variable concentrations in 1x kinetic buffer (PBS pH 7.4, 0.1% BSA, 0.05% Tween 20); 1:1 global model; three repeats; details: both partners purified
T1 chain: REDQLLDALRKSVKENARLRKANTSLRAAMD

Flag-tag-D2 CDD (C-terminal docking domain of DEBS1, 6-deoxyerythronolide B synthase) (from UniProt Q03131 1-3491) (domain or fragment)
Kd [1]: 14600 nM

Flag-tag-D4 CDD (C-terminal docking domain of DEBS2, 6-deoxyerythronolide B synthase) (from UniProt Q03132 1-3567) (domain or fragment)
Kd [2]: 280 nM

B1: Flag-tag-R4 CDD (C-terminal docking domain of RapA, rapamycin polyketide synthase) (domain or fragment)
chain: FAPAEPEPRLHEQELRRALAGISIDKFREAGVLDTLLRLAAMEGLAVPKPDSESDDEAFVDEMDADALIKHVLEEER
Kd [3]: 340 ± 30 nM
